Changes are numbered by the printed parent chain. Numbers in names are those of the source.
B1: n501 T77A (antibody)
chain: EVQLVESGGGLVQPGGSLRLSCAASDFTFRNYEMSWVRQAPGKGLEWVSSISGSGGSTYYAHSLKGRFAISRDNSKNTLYLQMNSLRAEDTAIYYCARLRDGFNNGFDYWGQGTLVTVSS
B2: n501 N92A (antibody)
chain: B1 chain with A69T, N84A

Target: Protein A domain D (Staphylococcus aureus)
Assay: BLI

| Binder | Kd |
| --- | --- |
| B1 | 324 nM |
| B2 | 328 nM |
